Measured values: publication PMC6908506, “Development of Foot-and-Mouth Disease Virus-Neutralizing Monoclonal Antibodies Derived From Plasmablasts of Infected Cattle and Their Germline Gene Usage” (Frontiers in Immunology, 2019)

B1: F115 (antibody)
VH: QVQLRESGPSLVKPSQTLSLTCTASGFSLSDKTLGWVRQAPGKALEWLGSMDSGGNTGYNPDLKSRLSITKDNSRSQVSLSVSSVTTEDSATYYCTTTHQISRKEQRCPDGCRVNGWWGDSGCDDDTYCRYNYWGNCIRCTYVYTYEFHVDAWGQGLLVTVSS
VL: QAVLTQPSSVSGSLGQRVSITCSGSSSNVENGYVSWYQLIPGSTPKTLIYGDTSRASGVPARFSGSRSGNTATLTISSLQAEDEADYFCASAEDTSSNAVFGSGTTLTVL
B2: F56 (antibody, V domains shown)
VH: QVQLRESGPSLVKPSQTLSLTCTFSGFSLSSNGVLWVRQAPGKALEWLGGMCRSGSTNFNPALKSRLSITKNNSKSQVSLSVSSVTPEDTATYYCTTGFDLDCDWGYEDSTWGQGLLVTVSS
VL: QAVLTQPSSVSGSLGQRVSITCSGSSSNIGNDDVGWYQQIPGSGLRTIIYGNNSRPSGVPDRFSGSKSGNTATLTISSLQAEDEADYFCASADDNTSTAVFGSGTTLTVL
B3: F45 (antibody, V domains shown)
VH: QVQLRESGPSLVKPSQILSLTCTVSGFSLSSNGAVWVRQAPGKTLEWIGGISVDGSVRYNPALNSRLSITKDNSKSQVSLSMTSATPEDTATYFCVRCFSGYSPNSVCSTADYVDAWGQRLLVTVSS
VL: QAVVNQPSSVSGSLGQRVFITCSGSSSNVGNGYVIWYQLIPGSGPTTLIYGDASRPSGVPDRFSGSRSGNTATLTIISLQAEDEEDYFCASAEDSSTNAVFGSGTTLTVL
B4: F64 (antibody, V domains shown)
VH: QVQLRESGPSLVKPSQTLSLTCTVSGLSLNSIGVIWVRQAPGKALEWVGGINSGGSTYYKSALKSRLSITKDNSNSQVSLSLNSVTPEDTATYYCATYVGDFWGQGLLVTVSS
VL: QAVLTQPSSVSGSLGQRISITCSGSSSNIGRYNVGWYQQVPGSGLRTIIYGSSSRPSGVPDRFSGSKSGNTATLTISSLQAEDEADYFCAADDNSNSTAVFGSGTTLNVL
B5: F104 (antibody, V domains shown)
VH: QVQLRESGPSLVKPSQTLSLTCTVSGFSLSSYDVGWVRQAPGKGLECLGGIGNRGNTKYNPALKSRLSITKDNSKSQVSLSLSSVTSEDTATYYCTKSYGGNDVYDCYDSEYWGQGLLVTVSS
VL: QAVLTQPSSVSGSLGQRVSITCSGSSNNIGRYSVGWYQQVPGSGLRTIIYISSSRPSGVPDRFSGSKSGNTATLTISSLQAEDEADYFCATNDYSSDTTIFGSGTTLTVL
B6: F39 (antibody, V domains shown)
VH: QVQLRESGLSLVKPSQTLSLTCTVSGFSLSSYGVGWVRQAPGKALECLGGITSGGSADYNPALKSRLSITKDNSKSQVSLSLSSVTTEDTATYYCGKTSRFYGLVCNVDFYDDSEYVDAWGQGLLVTVSS
VL: QAVLTQPSSVSGSLGQRVSITCFGSSNDVGYGDYVSWFQQIPGSAPRMIIYGATRRPSGVPDRFSGSRSGNTATLTINSLQAEDEADYFCASPVGLGSGYPIFGSGTALTVL

target: T1, FMDV O/Mya/98 146S antigen (Foot-and-mouth disease virus serotype …, UniProt G8JKC2, strain); test: immunostaining of cells or tissue; conditions: one partner purified
T1 construct: also called purified virus antigen; copies: + + +

| Binder | binding result |
| --- | --- |
| B1 | binds |
| B2 | binds |
| B3 | binds |
| B4 | binds |
| B5 | binds |
| B6 | binds |
